# B1: pDAS000150: plasmid donor with 41-bp sequence flanked by sites for ZFNs 29732/29730 and 30012/30018; SEQ ID NO:80, 81 (nucleic acid)
# chain 1: TGGATATCATAGTCCCGCATCAGGAGCACGTGCTGCCTATGATCCCAAGCGGTGGTGCTTTCAAGGACATGATCATGGGTTAGGTGCTGGTGGTCCGAAGGTCCACGCCGCCAACTACGGATGGCAGGACCTCGTACTGAAATTTCGACCTACAAGACCTACAAGTGTGACATGCGCAATCAGCATGATGCCCGCGT
# chain 2: ACGCGGGCATCATGCTGATTGCGCATGTCACACTTGTAGGTCTTGTAGGTCGAAATTTCAGTACGAGGTCCTGCCATCCGTAGTTGGCGGCGTGGACCTTCGGACCACCAGCACCTAACCCATGATCATGTCCTTGAAAGCACCACCGCTTGGGATCATAGGCAGCACGTGCTCCTGATGCGGGACTATGATATCCA
# modifications: pDAS000150
# B2: pDAS000153: plasmid donor with 41-bp sequence flanked by ZFN 29732/29730 sites; SEQ ID NO:78, 79 (nucleic acid)
# chain 1: TGGATATCATAGTCCCGCATCAGGAGCACGTGCTGCCTATGATCCCAAGCGGTGGTGCTTTCAAGGACATGATCATGGGTTAGGTGCTGGTGGTCCGAAGGTCCACGCCGCCAACTACGTGGATATCATAGTCCCGCATCAGGAGCACGTGCTGCCTATGATCCCAAGCGGTGGTGCTTTCAAGGACATGATCATGG
# chain 2: CCATGATCATGTCCTTGAAAGCACCACCGCTTGGGATCATAGGCAGCACGTGCTCCTGATGCGGGACTATGATATCCACGTAGTTGGCGGCGTGGACCTTCGGACCACCAGCACCTAACCCATGATCATGTCCTTGAAAGCACCACCGCTTGGGATCATAGGCAGCACGTGCTCCTGATGCGGGACTATGATATCCA
# modifications: pDAS000153
# Legend:
# [1] = test system: endogenous AHAS genes (three homoeologous copies); test: transient assay of ZFN-mediated NHEJ-directed AHAS editing in biolistically transfected scutella; format: cell-based, Triticum aestivum; conditions: for Editing Frequency (ppm): NHEJ, scutella; for molecular evidence for ZFN-mediated NHEJ-directed gene editing: samples of SEC protoplasts and scutella, with pDAB109350 (pDAS000149, pDAS000150 also pDAB109360)
# Text: (§1) The first type of donor design was a linear, double stranded DNA molecule comprising 41-bp of sequence that shared no homology with the endogenous AHAS genes in wheat. Two donor DNA molecules were designed, each to target the three homoeologous copies of the AHAS gene. Both donor DNA molecules had protruding 5′ and 3′ ends to provide ligation overhangs to facilitate ZFN-mediated NHEJ-directed DNA repair. The two donor DNA molecules differed by the sequence at their protruding 3′ end. The first donor DNA molecule, pDAS000152 (SEQ ID NO:74 and SEQ ID NO:75), was designed to provide ligation overhangs that were compatible with those generated by cleavage of the endogenous AHAS genes by ZFNs 29732 and 29730 (encoded on plasmid pDAB109350) and to result in the insertion of the 41-bp donor molecule into the endogenous AHAS gene at the site of the double strand DNA break via NHEJ-directed DNA repair. The second donor DNA molecule pDAS000149 (SEQ ID NO: 76 and SEQ ID NO:77) was designed to provide ligation overhangs that were compatible with those generated by the dual cleavage of the endogenous AHAS genes by ZFNs 29732 and 29730 (encoded on plasmid pDAB109350) and ZFNs 30012 and 30018 (encoded on plasmid pDAB109360) and to result in the replacement of the endogenous AHAS sequence contained between the two double strand DNA breaks created by the ZFNs with the 41-bp donor molecule via NHEJ-directed DNA repair.
# (§2) The second type of donor was a plasmid DNA vector containing 41-bp of sequence that shared no homology with the endogenous AHAS genes in wheat and that was flanked on either side by sequence that was recognized by the ZFN(s) used to create double strand DNA breaks in the endogenous AHAS genes. This donor design allowed in planta release of the unique 41-bp sequence from the plasmid DNA molecule by the same ZFN(s) used to cleave target sites in the endogenous AHAS genes, and simultaneous generation of protruding ends that were suitable for overhang ligation of the released 41-bp sequence into the endogenous AHAS genes via NHEJ-directed DNA repair. Two plasmid donor DNA molecules were designed, each to target the three homoeologous copies of the AHAS gene. The first plasmid donor molecule, pDAS000153 (SED ID NO:78 and SEQ ID NO:79) (FIG. 8), was designed to provide ligation overhangs on the released 41-bp DNA fragment that were compatible with those generated by cleavage of the endogenous AHAS genes by ZFNs 29732 and 29730 (encoded on plasmid pDAB109350). The second plasmid donor molecule, pDAS000150 (SEQ ID NO:80 and SEQ ID NO:81) (FIG. 9), was designed to provide ligation overhangs on the released 41-bp DNA fragment that were at one end compatible with those generated by ZFNs 29732 and 29730 (encoded on plasmid pDAB109350) and at the other end compatible with those generated by ZFNs 30012 and 30018 (encoded on plasmid pDAB109360). This design allowed the replacement of the endogenous AHAS sequence contained between the two double strand DNA breaks created by ZFNs 29732 and 29730 and ZFNs 30012 and 30018 with the 41-bp donor molecule sequence.
# (§3) Seedlings of the donor wheat line were grown in an environment controlled growth room maintained at 18/16° C. (day/night) and a 16/8 hour (day/night) photoperiod with lighting provided at […]. Wheat spikes were collected at 12-14 days post-anthesis and were surface sterilized by soaking for 1 min in 70% (v/v) ethanol. The spikes were threshed and the immature seeds were sterilized for 15 min in 17% (v/v) bleach with gentle shaking, followed by rinsing at least three times with sterile distilled water. The embryos were aseptically isolated from the immature seeds under a dissecting microscope. The embryonic axis was removed using a sharp scalpel and discarded. The scutella were placed into a 9 cm PETRI™ dish containing osmotic MS (E3 maltose) medium, with the uncut scutellum oriented upwards. A total of 20 scutella were plated onto each 9 cm PETRI™ dish. […]
# [2] = test system: endogenous AHAS genes (three homoeologous copies); test: transient assay of ZFN-mediated NHEJ-directed AHAS editing in PEG-transfected SEC protoplasts; format: cell-based, Triticum aestivum; conditions: SEC protoplast
# Text: as §1, §2
# as §3, with “2-4 medium without TIMENTIN™,” for “osmotic MS (E3 maltose) medium,”, “25” for “20”
# [3] = wheat sub-genome A, ZFN 29732-2A-29730, ratio 5:1
# [4] = wheat sub-genome A, ZFN 29732-2A-29730, ratio 10:1
# [5] = wheat sub-genome A, ZFN n/a (donor only), average of three biological replicates
# [6] = wheat sub-genome B, ZFN 29732-2A-29730, ratio 5:1
# [7] = wheat sub-genome B, ZFN 29732-2A-29730, ratio 10:1
# [8] = wheat sub-genome B, ZFN n/a (donor only)
# [9] = wheat sub-genome D, ZFN 29732-2A-29730, ratio 5:1
# [10] = wheat sub-genome D, ZFN 29732-2A-29730, ratio 10:1
# [11] = wheat sub-genome D, ZFN n/a (donor only)
# [12] = wheat sub-genome A, ZFN 29732-2A-29730, ratio 20:1
# [13] = wheat sub-genome B, ZFN 29732-2A-29730, ratio 20:1
# [14] = wheat sub-genome D, ZFN 29732-2A-29730, ratio 20:1
molecule,measurement,setting,value
B1,Editing Frequency (ppm),[1]; [3],1 ppm
same,Editing Frequency (ppm),[1]; [4],0 ppm
same,Editing Frequency (ppm),[1]; [5],0 ppm
same,Editing Frequency (ppm),[1]; [6],0 ppm
same,Editing Frequency (ppm),[1]; [7],0 ppm
same,Editing Frequency (ppm),[1]; [8],0 ppm
same,Editing Frequency (ppm),[1]; [9],4 ppm
same,Editing Frequency (ppm),[1]; [10],0 ppm
same,Editing Frequency (ppm),[1]; [11],0 ppm
same,molecular evidence for ZFN-mediated NHEJ-directed gene editing,[1],Limited evidence
same,Editing Frequency (ppm),[2]; [3],0 ppm
same,Editing Frequency (ppm),[2]; [4],0 ppm
same,Editing Frequency (ppm),[2]; [12],0 ppm
same,Editing Frequency (ppm),[2]; [5],0 ppm
same,Editing Frequency (ppm),[2]; [6],0 ppm
same,Editing Frequency (ppm),[2]; [7],0 ppm
same,Editing Frequency (ppm),[2]; [13],0 ppm
same,Editing Frequency (ppm),[2]; [8],0 ppm
same,Editing Frequency (ppm),[2]; [9],0 ppm
same,Editing Frequency (ppm),[2]; [10],0 ppm
same,Editing Frequency (ppm),[2]; [14],0 ppm
same,Editing Frequency (ppm),[2]; [11],0 ppm
B2,Editing Frequency (ppm),[1]; [3],4 ppm
same,Editing Frequency (ppm),[1]; [4],0 ppm
same,Editing Frequency (ppm),[1]; [5],0 ppm
same,Editing Frequency (ppm),[1]; [6],0 ppm
same,Editing Frequency (ppm),[1]; [7],0 ppm
same,Editing Frequency (ppm),[1]; [8],0 ppm
same,Editing Frequency (ppm),[1]; [9],0 ppm
same,Editing Frequency (ppm),[1]; [10],0 ppm
same,Editing Frequency (ppm),[1]; [11],0 ppm
same,molecular evidence for ZFN-mediated NHEJ-directed gene editing,[1],poor evidence
same,Editing Frequency (ppm),[2]; [3],0 ppm
same,Editing Frequency (ppm),[2]; [4],0 ppm
same,Editing Frequency (ppm),[2]; [12],0 ppm
same,Editing Frequency (ppm),[2]; [5],0 ppm
same,Editing Frequency (ppm),[2]; [6],0 ppm
same,Editing Frequency (ppm),[2]; [7],0 ppm
same,Editing Frequency (ppm),[2]; [13],0 ppm
same,Editing Frequency (ppm),[2]; [8],0 ppm
same,Editing Frequency (ppm),[2]; [9],0 ppm
same,Editing Frequency (ppm),[2]; [10],0 ppm
same,Editing Frequency (ppm),[2]; [14],0 ppm
same,Editing Frequency (ppm),[2]; [11],0 ppm

# Source: patent US10501748B2, “Methods and compositions for integration of an exogenous sequence within the genome of plants” (Dow AgroSciences LLC, priority 2013, dated 2019)
